# B1: Nup98-FG/FS (full F/S mutant of Nup98-FG) (domain or fragment)
# chain: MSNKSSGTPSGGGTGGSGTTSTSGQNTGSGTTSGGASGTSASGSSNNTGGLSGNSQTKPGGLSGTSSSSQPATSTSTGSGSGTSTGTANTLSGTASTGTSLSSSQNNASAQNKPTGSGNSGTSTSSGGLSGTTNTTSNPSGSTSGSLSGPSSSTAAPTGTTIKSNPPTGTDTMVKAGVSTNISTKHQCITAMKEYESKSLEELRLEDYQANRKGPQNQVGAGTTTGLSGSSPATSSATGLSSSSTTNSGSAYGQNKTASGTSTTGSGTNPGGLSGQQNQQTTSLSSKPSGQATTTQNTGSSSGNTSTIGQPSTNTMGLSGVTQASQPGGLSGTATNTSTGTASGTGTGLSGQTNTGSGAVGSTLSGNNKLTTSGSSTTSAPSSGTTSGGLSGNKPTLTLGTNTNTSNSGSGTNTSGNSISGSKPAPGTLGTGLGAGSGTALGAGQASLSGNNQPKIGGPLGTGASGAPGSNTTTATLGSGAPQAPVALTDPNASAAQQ
# Biological target: recombinant human full-length Tau (2N4R, 441 aa), non-phosphorylated (human, UniProt P10636-8 1-441)
# Test: SPR
binder,measurement,value
B1,Kd,360 nM

# Source: paper PMC8998617 (2022)
